Drawing on PMC8096101, this text covers response for one substance.

The target of the assay is SMO657-nanoluc (UniProt P56726). The assay is described as follows: BRET. As to conditions: HEK293 cells; SMO657-nanoluc donor, YFP-tagged PKA-C acceptor; BRET ratio (YFP/nanoluc), background-subtracted; parent: est. 2.4; read off a plot. Background: In BRET a luciferase serves as donor, and the signal depends on an acceptor being close.
UniProt P56726, sequence (P56726 65-657): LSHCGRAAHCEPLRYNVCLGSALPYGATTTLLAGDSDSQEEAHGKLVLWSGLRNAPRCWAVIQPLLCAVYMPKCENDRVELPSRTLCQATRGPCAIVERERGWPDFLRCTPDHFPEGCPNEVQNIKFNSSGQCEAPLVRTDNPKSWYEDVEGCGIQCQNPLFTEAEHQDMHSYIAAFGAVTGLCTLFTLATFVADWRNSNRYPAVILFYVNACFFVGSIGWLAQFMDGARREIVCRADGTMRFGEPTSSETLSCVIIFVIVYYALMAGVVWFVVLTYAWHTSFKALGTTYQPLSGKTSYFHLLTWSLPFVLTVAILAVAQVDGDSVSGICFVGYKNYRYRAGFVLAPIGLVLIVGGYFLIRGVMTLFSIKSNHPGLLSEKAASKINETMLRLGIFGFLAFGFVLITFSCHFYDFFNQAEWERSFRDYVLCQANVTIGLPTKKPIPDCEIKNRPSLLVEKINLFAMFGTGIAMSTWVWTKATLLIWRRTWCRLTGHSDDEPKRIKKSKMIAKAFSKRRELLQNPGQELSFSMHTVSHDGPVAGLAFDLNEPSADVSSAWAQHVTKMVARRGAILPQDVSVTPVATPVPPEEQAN

Take “PKA-C-YFP (PKA catalytic subunit alpha, carboxyl-terminally YFP-tagged) (from UniProt P05132) H87Q; W196R”: the response amounted to 2.5 BRET.
